B1: SH13 (Fab, V domains shown)
VH: EVQLLESGGGVVQPGRSLRLSCAASGFTFSSYGMHWVRQAPGKGLEWVAVVYYDGSNKHYSDSVKGRFTISRDNSKNTLYLQMDSLRAEDTAVYYCARERNFRSGYSRYYYGMDVWGPGTTVTVSS
VL: not shown
notes: Fab/phage
B2: SH56 (Fab, V domains shown)
VH: EVQLLESGGGVVQPGRSLRLSCAASGFTFSSYGMHWVRQAPGKGLEWVAVVYYDGSNKHYSDSVKGRFTIFRDNSKNTLYLQMDSLRAEDTAVYYCARERNFRSGYSRYYYGMDVWGPGTTVTVSS
VL: AELTQSPSSLSASVGDRVTITCRASQSISRYLNWYQQKPGKAPKLLIYAASSLQSGVPSRFSGSGSGTDFALTISSLLPEDFATYYCQQGYSTPPYSFGQGTKLEIKR
notes: Fab/phage
B3: SH17 (Fab, V domains shown)
VH: EVQLLESGGGLVQPGGSLRLSCGASGIPFVSSWMAWVRQAPGKGLEWVANIKQDGSKKNYVDSVEGRFTISRDNAKNSLYLQMDSLRAEDTRIYYCARDSLTCFDYWGQGALVTVSS
VL: AELQDPVVSVALGQTVRITCQGDGLRSYYASWYQQKPGQAPKLVMYGRNNRPSGIPGRFSGSSSGQTAALTITGTQAEDEADYYCQSRATSGNPVVFGGGTKLTVL
notes: Fab/phage

The assay addresses T1, human Rh(D) antigen (human, UniProt Q02161 2-417).
T1 construct: whole, on cells; also called wt; wild-type Rh(D) on Rh(D)-positive RBCs
T1 sequence (looked up): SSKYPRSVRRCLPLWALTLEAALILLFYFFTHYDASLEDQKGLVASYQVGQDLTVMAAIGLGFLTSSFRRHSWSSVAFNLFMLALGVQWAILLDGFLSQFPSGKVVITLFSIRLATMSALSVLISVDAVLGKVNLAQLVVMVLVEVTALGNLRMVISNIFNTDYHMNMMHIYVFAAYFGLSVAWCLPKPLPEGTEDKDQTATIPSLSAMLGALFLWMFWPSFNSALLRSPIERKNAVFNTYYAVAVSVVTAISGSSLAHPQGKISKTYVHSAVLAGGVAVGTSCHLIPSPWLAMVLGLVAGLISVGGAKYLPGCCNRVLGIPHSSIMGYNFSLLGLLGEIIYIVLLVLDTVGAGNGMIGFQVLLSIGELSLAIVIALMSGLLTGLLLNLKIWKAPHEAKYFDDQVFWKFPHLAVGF
Put plainly: Fab/phage agglutination (anti-M13). The method, then:
Following a one-hour incubation at 37° C., the RBCs were washed 3 times with 2 ml of cold PBS to remove unbound antibody. The resulting RBC pellets were resuspended in 100 μl of a 10 μg/ml solution of sheep anti-M13 antibody (5 Prime-3 Prime, Boulder, Colo.) for Fab/phage experiments or goat anti-human κ or λ light chain antibody (Tago, Burlingame, Calif.) for γ₁κ or γ₁λ soluble Fab experiments, respectively. The RBC suspensions were transferred to the round-bottomed wells of a 96-well microplate and left undisturbed for […]. Negative reactions show sharp ˜2 millimeter diameter RBC spots whereas the RBCs in agglutinated wells form a thin carpet coating the entire floor of the well (Siegel et al., 1997, J. Immunol. Meth. 206:73). Agglutination titers for recombinant antibodies were determined by performing serial 2-fold dilutions in 1% BSA/PBS.
Fifty-six randomly chosen colonies were selected, and monoclonal Fab/phage preparations were separately produced from each of these individual colonies, using the methods described herein in Example 1. Rh(D) specificity was determined by indirect agglutination using anti-M13 antibody, as described herein in Examples 1 and 2.
Regarding B1, the binding result is listed as “binds”.

Take B2: the binding result is given as “binds”. With B3 the entry was “binds”.

(Values after patent US20060177440A1 (published 2006).)
